# Measurements published in PMC5961234.
# Target: human alpha-thrombin (Homo sapiens, UniProt P00734;P00734 328-363;364-622)
# Test: BLI
row,Binder,Kd
1,"GGTTGGTGTGGTTGG (structured_DNA, none) [TBA]",2.8 nM
2,"GGTTGGTGTGGTTGG (structured_DNA, T3 = W, 5-(indolyl-3-acetyl-3-amino-1-propenyl)-2'-deoxyuridine (written T)) [T3W]",3.9 nM
3,"GGTTGGTGTGGTTGG (structured_DNA, T4 = W, 5-(indolyl-3-acetyl-3-amino-1-propenyl)-2'-deoxyuridine (written T)) [T4W]",1 nM
4,"GGTTGGTGTGGTTGG (structured_DNA, T7 = W, 5-(indolyl-3-acetyl-3-amino-1-propenyl)-2'-deoxyuridine (written T)) [T7W]",1.7 nM
5,"GGTTGGTGTGGTTGG (structured_DNA, T12 = W, 5-(indolyl-3-acetyl-3-amino-1-propenyl)-2'-deoxyuridine (written T)) [T12W]",1.3 nM
6,"GGTTGGTGTGGTTGG (structured_DNA, T4 and T12 = W, 5-(indolyl-3-acetyl-3-amino-1-propenyl)-2'-deoxyuridine (written T)) [T4WT12W]",0.31 nM
7,"GGTTGGTGTGGTTGG (structured_DNA, T4 = K, 5-(methyl-3-acetyl-3-amino-1-propenyl)-2'-deoxyuridine (written T)) [T4K]",0.39 nM
